Reference: US20260146107A1 (ALLIGATOR BIOSCIENCE, published 2026)
Changes are numbered by the printed parent chain.

T1: human CEACAM1, recombinant (R&D Systems #2244-CM-050) (human, UniProt P13688 35-428)
T1 construct: also called hCEACAM-1
T1 sequence (looked up): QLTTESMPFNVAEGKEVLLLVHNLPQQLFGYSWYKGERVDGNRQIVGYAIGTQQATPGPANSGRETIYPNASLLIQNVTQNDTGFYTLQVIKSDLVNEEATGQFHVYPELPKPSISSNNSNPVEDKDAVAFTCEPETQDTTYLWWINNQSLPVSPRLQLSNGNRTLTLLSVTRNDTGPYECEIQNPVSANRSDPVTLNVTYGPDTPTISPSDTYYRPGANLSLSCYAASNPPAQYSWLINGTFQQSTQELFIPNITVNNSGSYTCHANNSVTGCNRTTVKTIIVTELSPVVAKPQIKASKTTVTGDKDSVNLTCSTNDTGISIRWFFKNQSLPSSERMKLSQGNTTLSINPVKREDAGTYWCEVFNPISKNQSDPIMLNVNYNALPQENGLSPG

T2: human CEACAM5, recombinant (R&D Systems #4128-CM-050) (human, UniProt P06731 35-685)
T2 construct: Bought; coated in ELISA and used as monomeric analyte in Octet; also called hCEACAM-5; Human CEACAM5-His; not shown: His tag
T2 sequence (looked up): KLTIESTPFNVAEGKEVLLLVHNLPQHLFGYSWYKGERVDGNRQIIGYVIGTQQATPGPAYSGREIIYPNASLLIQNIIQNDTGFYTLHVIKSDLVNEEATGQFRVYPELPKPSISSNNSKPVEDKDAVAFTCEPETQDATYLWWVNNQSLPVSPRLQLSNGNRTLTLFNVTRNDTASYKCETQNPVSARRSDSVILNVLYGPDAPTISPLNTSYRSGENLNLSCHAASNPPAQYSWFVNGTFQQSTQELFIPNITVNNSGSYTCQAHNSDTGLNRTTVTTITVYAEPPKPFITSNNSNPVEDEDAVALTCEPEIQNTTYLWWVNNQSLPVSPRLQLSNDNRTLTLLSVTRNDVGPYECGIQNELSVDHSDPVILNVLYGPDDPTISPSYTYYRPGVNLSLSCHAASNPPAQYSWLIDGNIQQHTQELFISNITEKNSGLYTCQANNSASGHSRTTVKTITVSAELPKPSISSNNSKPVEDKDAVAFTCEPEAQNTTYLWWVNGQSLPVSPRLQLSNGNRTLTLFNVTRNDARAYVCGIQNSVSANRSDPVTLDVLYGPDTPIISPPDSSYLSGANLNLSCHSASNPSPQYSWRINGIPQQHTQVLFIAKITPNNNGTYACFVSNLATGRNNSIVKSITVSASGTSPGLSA

B1: AC_05330 (bispecific antibody)
heavy 1: not shown
light: not shown
heavy 2: EVQLLESGGGLVQPGGSLRLSCAASGFTFSSYAMSWVREAPGKGLEWVSAISGSGGSTYYADSVKGRFTISRDNSKNTLYLQMNSLRAEDTAVYYCARYYGGYYSAWMDYWGQGTLVTVSSASTKGPSVFPLAPSSKSTSGGTAALGCLVKDYFPEPVTVSWNSGALTSGVHTFPAVLQSSGLYSLSSVVEVPSSSLGTQTYICNVNHKPSNTKVDKKVEPKSC
notes: as AC_05293
B2: AC_05293 (bispecific antibody)
heavy 1: not shown
light: DIQMTQSPSSLSASVGDRVTITCRASQSISSYLNWYQEKPGKAPKLLIYAASSLQSGVPSRFSGSGSGTDFTLTISSLQPEDFATYYCQQYGRNPPTFGQGTKLEIKRTVAAPSVFIFPPSDEQLKSGTASVVCYLNNFYPREAKVQWKVDNALQSGNSQESVTEQDSKDSTYSLWSTLTLSKADYEKHKVYACEVTHQGLSSPVTKSFNRGEC
heavy 2: EVQLLEQSGAELVRPGTSVKISCKASGYAFTNYWLGWVKERPGHGLEWIGDIFPGSGNIHYNEKFKGKATLTADKSSSTAYMQLSSLTFEDSAVYFCARLRNWDEPMDYWGQGTTVTVSSASTKGPSVFPLAPSSKSTSGGTAALGCLVKDYFPEPVTVSWNSGALTSGVHTFPAVLQSSGLYSLSSVVEVPSSSLGTQTYICNVNHKPSNTKVDKKVEPKSC
B3: AC_05300 (bispecific antibody)
heavy 1: not shown
light: ELVMTQSPSSLTVTAGEKVTMSCKSSQSLLNSGNQKNYLTWYQEKPGQPPKLLIYWASTRESGVPDRFTGSGSGTDFTLTISSVQAEDLAVYYCQNDYSYPLTFGAGTKLEIKRTVAAPSVFIFPPSDEQLKSGTASVVCYLNNFYPREAKVQWKVDNALQSGNSQESVTEQDSKDSTYSLWSTLTLSKADYEKHKVYACEVTHQGLSSPVTKSFNRGEC
heavy 2: EVQLLESGGGLVQPGGSLRLSCAASGFTFSSYAMSWVREAPGKGLEWVSGIGSYGGGTYYADSVKGRFTISRDNSKNTLYLQMNSLRAEDTAVYYCARYVNFGMDYWGQGTLVTVSSASTKGPSVFPLAPSSKSTSGGTAALGCLVKDYFPEPVTVSWNSGALTSGVHTFPAVLQSSGLYSLSSVVEVPSSSLGTQTYICNVNHKPSNTKVDKKVEPKSC
notes: as AC_05293
B4: AC_05079 (antibody, human IgG1, kappa, V domains shown)
VH: EVQLLESGGGLVQPGGSLRLSCAASGFTFSSSYMGWVRQAPGKGLEWVSSIGSGSYSTSYADSVKGRFTISRDNSKNTLYLQMNSLRAEDTAVYYCARYPSVPFPPPLDYWGQGTLVTVSS
VL: DIQMTQSPSSLSASVGDRVTITCRASQSISSYLNWYQQKPGKAPKLLIYAASSLQSGVPSRFSGSGSGTDFTLTISSLQPEDFATYYCQQAGNPHTFGQGTKLEIKR
B5: AC_05095 (antibody, V domains shown)
VH: B4 VH with P106S, P107H
VL: DIQMTQSPSSLSASVGDRVTITCRASQSISSYLNWYQQKPGKAPKLLIYAASSLQSGVPSRFSGSGSGTDFTLTISSLQPEDFATYYCQQAGNPHTFGQGTKLEIK
B6: AC_05096 (antibody, human IgG1, kappa, V domains shown)
VH: B4 VH with P105R, P107H
VL: B4 VL
B7: AC_05092 (antibody, V domains shown)
VH: B4 VH with P107H
VL: B5 VL with Y32D
B8: AC_05086 (antibody, V domains shown)
VH: B4 VH with R98H, P107H
VL: B5 VL
B9: AC_05087 (antibody, V domains shown)
VH: B4 VH with S101P, P107H
VL: B5 VL
B10: AC_05083 (antibody, V domains shown)
VH: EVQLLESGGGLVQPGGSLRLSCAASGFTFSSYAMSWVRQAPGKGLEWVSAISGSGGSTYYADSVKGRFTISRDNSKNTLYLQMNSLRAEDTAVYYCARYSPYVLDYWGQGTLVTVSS
VL: DIQMTQSPSSLSASVGDRVTITCRASQSIRGYLNWYQQKPGKAPKLLIYAASSLQSGVPSRFSGSGSGTDFTLTISSLQPEDFATYYCQQPSYPSLFTFGQGTKLEIK
B11: AC_05098 (antibody, V domains shown)
VH: EVQLLESGGGLVQPGGSLRLSCAASGFTFGSYYMSWVRQAPGKGLEWVSGISGYGYYTGYADSVKGRFTISRDNSKNTLYLQMNSLRAEDTAVYYCARNGYGVIDYWGQGTLVTVSS
VL: B5 VL with S30R, S31D, A91G, G92T, N93F, H95F
B12: AC_05085 (antibody, V domains shown)
VH: EVQLLESGGGLVQPGGSLRLSCAASGFTFGSYYMYWVRQAPGKGLEWVSSIGGYSGSTYYADSVKGRFTISRDNSKNTLYLQMNSLRAEDTAVYYCARNTPFPGGSGLDYWGQGTLVTVSS
VL: B5 VL
B13: AC_05100 (antibody, V domains shown)
VH: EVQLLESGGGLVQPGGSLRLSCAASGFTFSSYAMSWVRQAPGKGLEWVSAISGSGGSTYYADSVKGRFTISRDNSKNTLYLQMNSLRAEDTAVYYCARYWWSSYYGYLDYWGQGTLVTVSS
VL: B5 VL
B14: AC_05084 (antibody, V domains shown)
VH: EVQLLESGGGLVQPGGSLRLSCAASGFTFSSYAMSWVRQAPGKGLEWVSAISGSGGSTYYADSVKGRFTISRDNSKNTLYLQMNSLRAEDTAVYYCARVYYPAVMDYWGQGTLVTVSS
VL: B5 VL with A91V, G92D, N93G, P94L, H95F
B15: AC_05082 (antibody, V domains shown)
VH: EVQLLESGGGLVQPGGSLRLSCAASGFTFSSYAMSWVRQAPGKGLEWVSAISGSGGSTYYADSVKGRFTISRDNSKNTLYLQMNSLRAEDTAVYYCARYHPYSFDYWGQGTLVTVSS
VL: B5 VL

target: T3, biotinylated human CD40-mouse Fc (Ancell #504-030) (human, UniProt P25942 21-193, biotinylated (site not stated)); test: Octet BLI, captured CD40mFc-biotin, bsAb in solution, 1:1 fit
T3 construct: Bought; also called hCD40-muIg; CD40mFc-biotin; not shown: mouse Ig Fc
T3 sequence (P25942 21-193): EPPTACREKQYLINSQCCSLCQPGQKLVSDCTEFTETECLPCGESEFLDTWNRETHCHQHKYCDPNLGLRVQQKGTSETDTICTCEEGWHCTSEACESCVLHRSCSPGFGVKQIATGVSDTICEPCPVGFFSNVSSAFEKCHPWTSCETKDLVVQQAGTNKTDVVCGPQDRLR
Procedure: Kinetic measurements were performed in the Octet RED96 platform using several different setups. […] Monomeric human CD40-His-Avi tag (Acro Biosystems #CD0-H5228), monomeric Human CEACAM5-His (R&D Systems #4128-CM-050) or monomeric Cynomolgus CEACAM5-His (Sino Biological #90891-C08H) were ½ serially diluted in 1× kinetic buffer (Sartorius) starting at 500 nM or 100 nM. […] Binding kinetics was studied in 1× kinetic buffer where association was allowed for 100 sec, 300 sec or 600 sec followed by dissociation for 100 sec, 300 sec or 3600 sec. Sensor tips were regenerated with 10 mM Glycine pH 1.7. Data generated were referenced by subtracting blank or parallel buffer blank, the baseline was aligned to the y-axis, inter-step correction by alignment against dissociation was performed and the data was smoothed by Savitzky-Golay filter in the data analysis software (v9.0.0.14). The processed data was fitted using a 1:1 Langmuir binding model with R² or X² as a measurement of fitting accuracy.
TABLE 12 Summary of kinetic profiles measured in Octet. Bispecific antibodies in solution (25-0.8 nM, 10-2 or 5-0.7 nM.) interacting with captured CD40mFc-biotin. Association was measured for 300 sec or 600 sec and dissociation was measured for 300 sec or 3600 sec

Kd | koff | kon | Binder
0.45 nM | 1.6e-05 s⁻¹ | 35000 M⁻¹ s⁻¹ | B1
76 nM | 0.00062 s⁻¹ | 8300 M⁻¹ s⁻¹ | B2
8.5 nM | 0.0046 s⁻¹ | 540000 M⁻¹ s⁻¹ | B3

target: T1, human CEACAM1, recombinant (R&D Systems …); test: ELISA, antigen coated at 0.5 µg/mL, IgG1 antibody at 10 µg/ml, anti-human kappa-HRP, luminescence
Procedure: (§1) 96-well plates were coated with 0.5 μg/mL antigen, hCEACAM-5 (4128-CM-050, R&D Systems), hCEACAM-1 (2244-CM-050, R&D Systems), hCEACAM-6(3934-CM-050, R&D Systems) or CEACAM-8 (9639-CM-050, R&D Systems) in PBS over night at 4° C. After washing with PBS/0.05% Tween 20 (PBST), the plates were blocked with PBST, 2% BSA for at least 30 minutes at room temperature before a second round of washing. […] After washing, plates were incubated with 50 μl detection antibody (0.5 μg/ml HRP conjugated goat anti human-kappa light chain, #STAR127P, AbD Serotec). Finally, a final round of washing was performed and bound complexes detected using SuperSignal Pico Luminescent as substrate and luminescence signals were measured using Fluostar Optima.

binding result | Binder
no binding (tested: 10 µg/ml) | B4
binds | B5
no binding (tested: 10 µg/ml) | B6
no binding (tested: 10 µg/ml) | B7
binds | B8
binds | B9
binds | B10
no binding (tested: 10 µg/ml) | B11
no binding (tested: 10 µg/ml) | B12
no binding (tested: 10 µg/ml) | B13
no binding (tested: 10 µg/ml) | B14
no binding (tested: 10 µg/ml) | B15

target: T2, human CEACAM5, recombinant (R&D Systems …); test: as above
Procedure: as §1

binding result | Binder
binds | B4
binds | B5
binds | B6
no binding (tested: 10 µg/ml) | B7
binds | B8
binds | B9
binds | B10
no binding (tested: 10 µg/ml) | B11
no binding (tested: 10 µg/ml) | B12
no binding (tested: 10 µg/ml) | B13
no binding (tested: 10 µg/ml) | B14
no binding (tested: 10 µg/ml) | B15
